Measured values reported in patent US20120244166A1.

What was measured:
[1] = target: Du156.12; assay: ELISA
[2] = target: gp120 (HIV-1 strain YU2) (UniProt P35961); assay: SPR

12 (Light chain: Y30S)
EC50 [1]: 0.196 µg/mL

4 (Heavy chain: V57T)
EC50 [1]: 0.164 µg/mL

7 (Heavy chain: Y74S)
EC50 [1]: 0.071 µg/mL

5 (Heavy chain: P62K)
EC50 [1]: 0.066 µg/mL

9 (Heavy chain: K52N)
EC50 [1]: 0.056 µg/mL

10 (Heavy chain: R53N)
EC50 [1]: 0.063 µg/mL

8 (Heavy chain: I30T)
EC50 [1]: 0.063 µg/mL

6 (Heavy chain: V73T)
EC50 [1]: 0.097 µg/mL

b12
Kd [2]: 38.1 nM

3 (Heavy chain: A56G)
EC50 [1]: 0.101 µg/mL

11 (Heavy chain: R61Q)
EC50 [1]: 0.086 µg/mL

1 (Heavy chain: T33Y)
EC50 [1]: 0.048 µg/mL
